Results reported in article PMC9307980, “High-Affinity Single-Domain Antibodies for Analyzing Human Apo- and Holo-Transferrin” (Acta Naturae, 2022).

B1: aTf1 nanobody (anti-human transferrin single-domain antibody) (VHH)
VHH: QVQLVESGGGLVQPGGSLTLSCAASGFTFSTYAMKWVRQAPGMGLEYVASINNGGTSTFYSASVKGRFTISRDNAKNTLYLQLNSLKTEDTAMYYCARINEYSTRGQGTQVTVSS
notes: variable domain of aTf1; HA-tag and His-tag follow it; source: generated in the bacterial periplasm, isolated and purified
B2: aTf2 nanobody (anti-human transferrin single-domain antibody) (VHH)
VHH: QVQLVESGGGSVQAGGSLRLSCAVSGYMYSTNCMGWFRQAPGKEREGVAAIYTGGGSTYYPDSVKGRFTISQDNAKNTVYLQMNSLKPEDTAMYYCAAMRHCPYGGNWDHPVNYLGQGTQVTVSS
notes: variable domain of aTf2; long CDR3, cysteines in CDR1 and CDR3; HA-tag and His-tag follow it; source: generated in the bacterial periplasm, isolated and purified

Assays:
holo-Transferrin human = target: T1, holo-Transferrin human (Homo sapiens, UniProt P02787); experiment: ITC; in solution, PBS pH 7.4, MicroCal PEAQ-ITC; fitting model: sequential binding sites, number of sites 2; settings: both partners purified
T1 construct: human transferrin (serotransferrin), iron-saturated form, commercial preparation; same polypeptide as apo-Tf; also called holo-Tf; source: bought: Sigma-Aldrich

apo-Transferrin human = target: T2, apo-Transferrin human (Homo sapiens, UniProt P02787); experiment: as above; settings: both partners purified
T2 construct: human transferrin (serotransferrin), iron-free form, commercial preparation; Iron-free form of transferrin; same polypeptide as holo-Tf; also called apo-Tf; source: bought: Sigma-Aldrich
T2 sequence (P02787 20-698): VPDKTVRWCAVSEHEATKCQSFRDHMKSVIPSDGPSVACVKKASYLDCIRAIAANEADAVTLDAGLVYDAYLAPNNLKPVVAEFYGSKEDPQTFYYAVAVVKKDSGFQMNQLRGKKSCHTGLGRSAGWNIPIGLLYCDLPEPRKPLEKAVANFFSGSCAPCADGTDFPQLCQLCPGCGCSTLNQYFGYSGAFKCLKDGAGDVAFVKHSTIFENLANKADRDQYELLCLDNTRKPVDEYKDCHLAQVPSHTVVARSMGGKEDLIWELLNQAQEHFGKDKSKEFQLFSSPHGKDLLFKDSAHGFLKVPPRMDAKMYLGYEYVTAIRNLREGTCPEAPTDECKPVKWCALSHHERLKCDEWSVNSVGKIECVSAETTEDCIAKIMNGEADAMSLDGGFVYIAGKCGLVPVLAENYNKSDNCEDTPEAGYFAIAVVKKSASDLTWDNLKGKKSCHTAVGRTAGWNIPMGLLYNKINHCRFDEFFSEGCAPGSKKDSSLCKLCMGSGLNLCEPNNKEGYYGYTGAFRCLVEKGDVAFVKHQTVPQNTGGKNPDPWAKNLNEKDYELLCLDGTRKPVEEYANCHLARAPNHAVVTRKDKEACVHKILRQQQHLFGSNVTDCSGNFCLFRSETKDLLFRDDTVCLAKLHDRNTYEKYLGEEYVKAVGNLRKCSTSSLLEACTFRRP

T1 sequence (P02787 20-698): as above

KD1 (sequential binding sites, site 1) (holo-Transferrin human) | KD2 (sequential binding sites, site 2) (holo-Transferrin human) | KD1 (sequential binding sites, site 1) (apo-Transferrin human) | KD2 (sequential binding sites, site 2) (apo-Transferrin human) | Binder
~0.44 nM | ~1.44 nM | ~99.4 nM | – | B1
~0.94 nM | ~0.75 nM | ~0.82 nM | ~14.5 nM | B2
